Experimental data as given in the supplement of paper PMC10567573.

B1: TSN (parent)
chain: FVELQGFLAAEQDIREEIRKVVQS
B2: CCND1 (parent)
chain: IRRAYPDANLLNDRVLRAMLKAEE

Variants of: B1
Experiment: protein stability index of a GFP-peptide fusion (GPS, HEK-293T) (PSI 1-6); higher = more stable
Conditions: c terminus: a fixed tail appended
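Note: lentivirally expressed fusions sorted by FACS into six bins by GFP to DsRed ratio, PSI derived from sequencing read proportions per bin multiplied by bin number.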

Row | Variant | protein stability index
1 | FVELQGFLAAEQDIREEIRRVVQS | 1.99
2 | FVELQGFLAAEQDIREEIRSVVQS | 1.96
3 | FVELQGFLAAEQDIREEIRTVVQS | 1.89
4 | FVELQGFLAAEQDIREEIRYVVQS | 2.21
5 | FVELQGFLAAEQDIREEIRKAVQS | 1.29
6 | FVELQGFLAAEQDIREEIRKDVQS | 2.52
7 | FVELQGFLAAEQDIREEIRKEVQS | 1.55
8 | FVELQGFLAAEQDIREEIRKGVQS | 1.69
9 | FVELQGFLAAEQDIREEIRKIVQS | 3.69
10 | FVELQGFLAAEQDIREEIRKKVQS | 1.79
11 | FVELQGFLAAEQDIREEIRKMVQS | 1.21
12 | FVELQGFLAAEQDIREEIRKNVQS | 2.47
13 | FVELQGFLAAEQDIREEIRKPVQS | 2.51
14 | FVELQGFLAAEQDIREEIRKQVQS | 2.13
15 | FVELQGFLAAEQDIREEIRKSVQS | 1.45
16 | FVELQGFLAAEQDIREEIRKTVQS | 3.32
17 | FVELQGFLAAEQDIREEIRKWVQS | 2.27
18 | FVELQGFLAAEQDIREEIRKYVQS | 1.68
19 | FVELQGFLAAEQDIREEIRKVCQS | 3
20 | FVELQGFLAAEQDIREEIRKVEQS | 2.23
21 | FVELQGFLAAEQDIREEIRKVFQS | 2.67
22 | FVELQGFLAAEQDIREEIRKVGQS | 1.55

Row | Variant | protein stability index
23 | FVELQGFLAAEQDIREEIRKVHQS | 2.65
24 | FVELQGFLAAEQDIREEIRKVIQS | 3.83
25 | FVELQGFLAAEQDIREEIRKVKQS | 1.62
26 | FVELQGFLAAEQDIREEIRKVLQS | 1.97
27 | FVELQGFLAAEQDIREEIRKVMQS | 1.42
28 | FVELQGFLAAEQDIREEIRKVPQS | 3.2
29 | FVELQGFLAAEQDIREEIRKVQQS | 4.66
30 | FVELQGFLAAEQDIREEIRKVRQS | 1.7
31 | FVELQGFLAAEQDIREEIRKVWQS | 2.27
32 | FVELQGFLAAEQDIREEIRKVVCS | 3.33
33 | FVELQGFLAAEQDIREEIRKVVDS | 3.47
34 | FVELQGFLAAEQDIREEIRKVVFS | 2.61
35 | FVELQGFLAAEQDIREEIRKVVIS | 1.25
36 | FVELQGFLAAEQDIREEIRKVVLS | 1.92
37 | FVELQGFLAAEQDIREEIRKVVMS | 1.98
38 | FVELQGFLAAEQDIREEIRKVVTS | 2.38
39 | FVELQGFLAAEQDIREEIRKVVWS | 1.65
40 | FVELQGFLAAEQDIREEIRKVVQE | 1.72
41 | FVELQGFLAAEQDIREEIRKVVQG | 2.37
42 | FVELQGFLAAEQDIREEIRKVVQK | 1.42
43 | FVELQGFLAAEQDIREEIRKVVQL | 3.92
44 | FVELQGFLAAEQDIREEIRKVVQQ | 1.97

Variants of: B2
Experiment: as above
Conditions: c terminus: a fixed tail appended

Row | Variant | protein stability index
45 | ARRAYPDANLLNDRVLRAMLKAEE | 2.77
46 | CRRAYPDANLLNDRVLRAMLKAEE | 2.41
47 | HRRAYPDANLLNDRVLRAMLKAEE | 3.25
48 | KRRAYPDANLLNDRVLRAMLKAEE | 2.99
49 | LRRAYPDANLLNDRVLRAMLKAEE | 2.5
50 | NRRAYPDANLLNDRVLRAMLKAEE | 3.69
51 | PRRAYPDANLLNDRVLRAMLKAEE | 3.34
52 | QRRAYPDANLLNDRVLRAMLKAEE | 3.45
53 | RRRAYPDANLLNDRVLRAMLKAEE | 2.21
54 | SRRAYPDANLLNDRVLRAMLKAEE | 3.94
55 | TRRAYPDANLLNDRVLRAMLKAEE | 2.27
56 | VRRAYPDANLLNDRVLRAMLKAEE | 2.69
57 | WRRAYPDANLLNDRVLRAMLKAEE | 2.32
58 | IARAYPDANLLNDRVLRAMLKAEE | 3.82
59 | ICRAYPDANLLNDRVLRAMLKAEE | 2.25
60 | IDRAYPDANLLNDRVLRAMLKAEE | 4.09
61 | IERAYPDANLLNDRVLRAMLKAEE | 3.49
62 | IFRAYPDANLLNDRVLRAMLKAEE | 1.94
63 | IHRAYPDANLLNDRVLRAMLKAEE | 2.08
64 | IIRAYPDANLLNDRVLRAMLKAEE | 2.4
65 | IKRAYPDANLLNDRVLRAMLKAEE | 2.87
66 | ILRAYPDANLLNDRVLRAMLKAEE | 2.39
67 | IMRAYPDANLLNDRVLRAMLKAEE | 3.37
68 | INRAYPDANLLNDRVLRAMLKAEE | 2.84
69 | IPRAYPDANLLNDRVLRAMLKAEE | 3.68

Row | Variant | protein stability index
70 | IQRAYPDANLLNDRVLRAMLKAEE | 3.03
71 | ITRAYPDANLLNDRVLRAMLKAEE | 2.92
72 | IWRAYPDANLLNDRVLRAMLKAEE | 3.61
73 | IYRAYPDANLLNDRVLRAMLKAEE | 1.6
74 | IRAAYPDANLLNDRVLRAMLKAEE | 2.86
75 | IRDAYPDANLLNDRVLRAMLKAEE | 4.23
76 | IREAYPDANLLNDRVLRAMLKAEE | 3.72
77 | IRFAYPDANLLNDRVLRAMLKAEE | 1.87
78 | IRGAYPDANLLNDRVLRAMLKAEE | 3.44
79 | IRHAYPDANLLNDRVLRAMLKAEE | 2.92
80 | IRIAYPDANLLNDRVLRAMLKAEE | 1.13
81 | IRKAYPDANLLNDRVLRAMLKAEE | 2.84
82 | IRMAYPDANLLNDRVLRAMLKAEE | 2.35
83 | IRNAYPDANLLNDRVLRAMLKAEE | 2.66
84 | IRPAYPDANLLNDRVLRAMLKAEE | 2.71
85 | IRQAYPDANLLNDRVLRAMLKAEE | 3.62
86 | IRTAYPDANLLNDRVLRAMLKAEE | 3.17
87 | IRVAYPDANLLNDRVLRAMLKAEE | 1.54
88 | IRWAYPDANLLNDRVLRAMLKAEE | 1.99
89 | IRYAYPDANLLNDRVLRAMLKAEE | 2.05
90 | IRRCYPDANLLNDRVLRAMLKAEE | 2.17
91 | IRREYPDANLLNDRVLRAMLKAEE | 2.04
92 | IRRFYPDANLLNDRVLRAMLKAEE | 1.4
93 | IRRHYPDANLLNDRVLRAMLKAEE | 2.4
94 | IRRIYPDANLLNDRVLRAMLKAEE | 2.4
